Test in all cases: purified protein
Substrate in data set [1]: COc1ccccc1O
The conditions noted are these: H2O2 62.5 µM, pH 4.5, 50 mM sodium acetate, 30 °C, 4.5 nM enzyme.

Substrate in data set [2]: CCn1c(=NN=c2sc3cc(S(=O)(=O)O)ccc3n2CC)sc2cc(S(=O)(=O)O)ccc21
The data set is classed as biochemical, Pleurotus sapidus. The conditions noted are these: H2O2 125 µM, pH 3.8, 100 mM sodium acetate, 30 °C, 0.27 nM enzyme.

Substrate in data set [3]: COc1cccc(OC)c1O
The data set is classed as biochemical, Pleurotus sapidus. The conditions noted are these: H2O2 62.5 µM, pH 4.5, 50 mM sodium acetate, 30 °C, 1.8 nM enzyme.

B1: rPsaDyP (recombinant DyP-type peroxidase of Pleurotus sapidus) (Pleurotus sapidus) (protein)
chain: ATNGTFLPLEEIQGDIMIGMRKPKEIFFFYSLQNPRKFKSVLAKLIYPHITTTAQMVCTTCAQPSAMLNVAWTSQGLRKLGVLDNLGDPYFAMGQLSDAAALGDTDPSTTWAPGLYANKTDGAFLIAAKDWEPIDTLLNQMKAWLGDAIVETHSNRGAVRPGDAAGKEHFGWLDGFIQPAVAGFATSTYPGQQLLLPGTLLTKEIGDPRRAARPAWTKWGSFMAYRQLQELVPEFDDYLMQEAALIQDSSRSVRERADLLGARMFGRWKSGTPLDLAPEKDDPSIGPNLMLNNNFDFNHPAPFNINTNQSYCPFSAHIRKIRPRADQGNQNLKNQMIRASIPYGEELSDDEINNKKTGTERGVAFVTYQSDLGSGFHFQQAEWANNVNIPTGKSDPTPGFDPIVGQNSGKPLVVSGIDYTDLNHDLTFMSFVVSKGGDYFFSPSMSAILHKIAA
One may read the Km as the concentration of substrate that gives half-maximal velocity. Broadly, the Vmax is the rate approached at saturating substrate. By kcat is commonly meant the maximal rate divided by the concentration of active sites. Broadly, the kcat/Km is the second-order rate constant that governs catalysis at low substrate concentration. B1: in data set [1], the Km was found to be 713 µM, the Vmax worked out at 21 µM/min, the kcat worked out at 74 s⁻¹ and the kcat/Km came out at 100000 M⁻¹ s⁻¹. In data set [2], the Km was 99 µM, the maximum rate (Vmax) was 6 µM/min, the kcat amounted to 375 s⁻¹ and the kcat/Km came to 3.8e+06 M⁻¹ s⁻¹. Besides, in data set [3], the Km was 1227 µM, the Vmax was determined as 6.6 µM/min, the kcat was determined as 60 s⁻¹ and the kcat/Km came out at 49000 M⁻¹ s⁻¹.

The values are drawn from article PMC5567573, “Identification, heterologous expression and characterization of a dye-decolorizing peroxidase of Pleurotus sapidus” (AMB Express, 2017).
